Among the data in patent publication US20170143798A1 are reduction of ER stress (ERAI-sXBP1 reporter) in murine MIN6N8 cells with 0.5 mM palmitate; amount needed against recombinant mouse IL-22 and suppression of oxidative stress (nitrite production) in human LS174T cells with 0.5 mM palmitate; concentration needed against human recombinant IL-22 values, retold here.

For assay [1], the target named is mouse IL-22 receptor (IL-22R1) on murine MIN6N8 β-cells and murine islets (mouse) (UniProt Q80XZ4). Description: cell-based or functional assay.
Sequence of UniProt Q80XZ4 (Q80XZ4 16-581): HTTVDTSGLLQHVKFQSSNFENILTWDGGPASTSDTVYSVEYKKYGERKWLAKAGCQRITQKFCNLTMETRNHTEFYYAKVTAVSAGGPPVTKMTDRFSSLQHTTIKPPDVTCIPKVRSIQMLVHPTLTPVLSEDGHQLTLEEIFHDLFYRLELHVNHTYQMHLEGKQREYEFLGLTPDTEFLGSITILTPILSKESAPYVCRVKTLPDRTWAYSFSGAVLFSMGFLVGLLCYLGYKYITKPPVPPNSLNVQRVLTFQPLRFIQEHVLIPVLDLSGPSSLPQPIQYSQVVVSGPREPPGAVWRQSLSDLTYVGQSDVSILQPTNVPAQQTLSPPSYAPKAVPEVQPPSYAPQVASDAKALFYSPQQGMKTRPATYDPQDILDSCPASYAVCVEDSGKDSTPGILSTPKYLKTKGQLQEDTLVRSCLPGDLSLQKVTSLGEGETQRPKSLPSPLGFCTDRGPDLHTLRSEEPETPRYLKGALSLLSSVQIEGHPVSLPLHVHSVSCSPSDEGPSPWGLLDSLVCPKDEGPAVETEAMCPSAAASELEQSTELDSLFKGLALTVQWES
Assay [2] addresses T1, human IL-22 receptor (IL-22R1) on human LS174T cells and human islets (human) (UniProt Q8N6P7).
T1 sequence (looked up): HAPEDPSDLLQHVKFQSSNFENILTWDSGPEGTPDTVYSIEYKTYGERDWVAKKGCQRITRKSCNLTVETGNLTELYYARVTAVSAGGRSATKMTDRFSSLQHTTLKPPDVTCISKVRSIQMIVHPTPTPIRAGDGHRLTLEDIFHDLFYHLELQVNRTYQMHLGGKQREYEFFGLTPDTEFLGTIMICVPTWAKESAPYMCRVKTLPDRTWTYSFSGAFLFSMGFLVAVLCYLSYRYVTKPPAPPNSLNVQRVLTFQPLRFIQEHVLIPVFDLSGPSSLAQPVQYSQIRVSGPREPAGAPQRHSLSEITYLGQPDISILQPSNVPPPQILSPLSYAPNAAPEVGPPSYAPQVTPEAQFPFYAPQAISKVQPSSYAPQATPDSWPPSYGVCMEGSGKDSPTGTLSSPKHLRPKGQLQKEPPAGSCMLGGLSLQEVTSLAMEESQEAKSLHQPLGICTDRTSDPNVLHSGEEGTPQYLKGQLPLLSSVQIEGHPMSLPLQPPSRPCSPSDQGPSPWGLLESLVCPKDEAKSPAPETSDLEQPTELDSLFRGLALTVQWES
Briefly: cell-based or functional assay.

As to “recombinant human IL-22 (from UniProt Q9GZX6 34-179) (ligand)”, the reduction of ER stress (ERAI-sXBP1 reporter) in murine MIN6N8 cells with 0.5 mM palmitate; amount needed against recombinant mouse IL-22 in assay [1] stood at 16 fold.

B1: recombinant mouse IL-22 (ligand, UniProt Q9JJY9 34-179, looked up)
chain: LPVNTRCKLEVSNFQQPYIVNRTFMLAKEASLADNNTDVRLIGEKLFRGVSAKDQCYLMKQVLNFTLEDVLLPQSDRFQPYMQEVVPFLTKLSNQLSSCHISGDDQNIQKNVRRLKETVKKLGESGEIKAIGELDLLFMSLRNACV
B1: the suppression of oxidative stress (nitrite production) in human LS174T cells with 0.5 mM palmitate; concentration needed against human recombinant IL-22 in assay [2] is 64 fold.
